Results on 12 molecules are retold here after patent publication US20250034594A1, “RNA-GUIDED GENOME RECOMBINEERING AT KILOBASE SCALE” (THE BOARD OF TRUSTEES OF THE LELAND STANFORD JUNIOR …, priority 2021, published 2025).

What all share (assay type): cell-based
In test [1] the test system is gene editing with Cas9 and dCas9. Briefly: Screen of 322 new SSAP proteins, activity across all experiments (Cas9 and dCas9, Table 5). Also noted: scale not given here. Summed up:
(§1)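 Read-out is gene editing activity. Candidates come from sequence data mining, are made synthetically, and are tested alongside either nuclease-active Cas9 or catalytically dead dCas9.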

The test system of the next test is gene editing with dCas9. Briefly: Screen of 322 new SSAP proteins, gene editing activity with dCas9 (Table 5). Also noted: dCas9 with SSAP activity: scale not given here. In a few lines: as §1
The subject of the next test is gene editing with Cas9. As to the kind of experiment: Screen of 322 new SSAP proteins, gene editing activity with Cas9 (Table 5). Details: Cas9 with SSAP activity: scale not given here. In a few lines: as §1

B1: SSAP_278: SEQ ID NO: 447; Paraliobacillus ryukyuensis (protein, listed as Paraliobacillus ryukyuensis)
chain: ATNDTLKNQISNKKNNQVAEGKQGTTMKGLLNSPAVMKRFEEVLGKRANQFTASILSLYNNEKTLQKSEPMSVISSAMIAATLDLPIDKNLGYAWIVPYGNKAQFQLGYKGYIQLALRTGQYRNINVIEVYEGELVKWNRLTEELELDFEQKKSDKVIGYTGYFELINGFRKTVYWSKADIEKHKQKFSKSNFGWSNDWDAMAKKTVIRNMLNKWGILSIDMQKAYSTDEIEQEQESNDFIDGEWAEVSEDDITEAMNEV
In the case of B1, the “Activity across all experiments” value in test [1] is on record as −0.030. For the same molecule, in the test with gene editing with dCas9, the “dCas9 with SSAP activity” value is on record as −1.129 and the “dCas9 with SSAP activity (normalized)” value is listed as −1.000. Besides, in the test on gene editing with Cas9, the “Cas9 with SSAP activity” value amounted to 1.070 and the “Cas9 with SSAP activity (normalized)” value is on record as 2.231.

B2: SSAP_138: SEQ ID NO: 307; unclassified Coprococcus (protein, listed as Coprococcus sp.)
chain: ANNIDLKQELAEQASKVPAKKDEEVKLTKSMTIPDMVKAMMPEIKKALPAVMTPERFTRIALSALNTTPALNQCTPMSFLAALMNAAQLGLEPNTPLGQAYLIPYKNHGTLECQFQIGYKGLIELAYRSGQMQTIQAQTVYENDEFAYQYGLEPVLVHRPAYSDRGEVKYFYGIFKTVNGGYGMAVMSRAEMDLYAKTYSKAYDSSYSPWKSNYEDMAKKTVIKQALKYAPIKTDFQRALSFDETIKKEISLDMSTVKNELLDVA
Take B2: in test [1], the “Activity across all experiments” value is −1.214. Besides, in the test on gene editing with dCas9, the “dCas9 with SSAP activity” value is reported as −1.000 and the “dCas9 with SSAP activity (normalized)” value is reported as −0.320. Moreover, in the test with gene editing with Cas9, the “Cas9 with SSAP activity” value is reported as −1.429 and the “Cas9 with SSAP activity (normalized)” value is given as −0.887.

B3: SSAP_159: SEQ ID NO: 328; Clostridium hathewayi CAG: 224 (protein, listed as Clostridium hathewayi)
chain: ANDIRGELARRASGTETQAVKLTKNMSIPDMIKALEPEIKRALPTILTPERFTRIALSAINNTPKLAECSPMSFIAALMNAAQLGLEPNTPLGQAFLIPYKVKGSLECQFQIGYRGMIDLAYRNERVQSIEAHTVYENDVFEYELGLNPRLVHIPTMEEPGDPIAFYGIFRLDNGGFRFEVMNKNAIDAYAARYSKAYDSASSPWKNNYESMACKTVLKQLLKYSPMKSEFQKAVSMDESVKTELSVDMSEVQNVNLIEETQEDAA
In the case of B3, the “Activity across all experiments” value in test [1] is reported as 0.233. Also, in the test on gene editing with dCas9, the “dCas9 with SSAP activity” value is given as −1.156 and the “dCas9 with SSAP activity (normalized)” value is −0.358. In the test on gene editing with Cas9, the “Cas9 with SSAP activity” value amounted to 1.622 and the “Cas9 with SSAP activity (normalized)” value was 2.756.

B4: SSAP_17: SEQ ID NO: 186 (protein)
chain: ATNDELKNQLANKQNGGQVASAQSLDLKGLLEAPTMRKKFEKVLDKKAPQFLTSLLNLYNGDDYLQKTDPMTVVTSAMVAATLDLPIDKNLGYAWIVPYKGRAQFQLGYKGYIQLALRTGQYKSINVIEVRDGELLKWNRLTEEIELDLDNNTSEKVIGYCGYFQLINGFEKTVYWTRKEIEAHKKKFSKSDFGWKKDYDAMAKKTVLRNMLSKWGILSIDMQTAVTEDEAEPRERKDVTEDESIPDIIDAPITPSDTLEAGSEVQGSMI
B4: the “Activity across all experiments” value in test [1] was −0.687. In the test with gene editing with dCas9, the “dCas9 with SSAP activity” value was −1.088 and the “dCas9 with SSAP activity (normalized)” value is −0.491. In the test with gene editing with Cas9, the “Cas9 with SSAP activity” value is recorded as −0.287 and the “Cas9 with SSAP activity (normalized)” value is on record as −0.195.

B5: SSAP_122: SEQ ID NO: 291; Clostridium transplantifaecale (protein)
chain: TDVKEELARKAGNTGKQEIRLNKNMSIPDMVKVLEPEIKRALPSVLTPERFTRMALSAINNTPKLAECSPMSFIAALMNAAQLGLEPNTPLGQAYLIPYKNKNQLECQFQIGYKGYIDLAYRTGQVQMIQAQAVHEFDYFEYEYGLTPKLVHRPGEGERGEITYFYGLFKMINGGFGFEVMNRAAMDAFAKQYSQSINSKYSPWNSQYEEMAKKTIIKKALKYGPVKSDFQKAISMDESIKTELSIDMSEVRNEDLIDGEFEEAA
modifications: Clostridium transplantifaecale
For B5, the “Activity across all experiments” value in test [1] turned out to be 0.144. In addition, in the test on gene editing with dCas9, the “dCas9 with SSAP activity” value is −1.142 and the “dCas9 with SSAP activity (normalized)” value was −0.148. In the test with gene editing with Cas9, the “Cas9 with SSAP activity” value was 1.429 and the “Cas9 with SSAP activity (normalized)” value turned out to be 0.558.

B6: SSAP_141: SEQ ID NO: 310; Hungatella hathewayi (protein, listed as Hungatella hathewayi)
chain: RRDRNVTAVKQELEKKAAGTSQAVKLTKNMTIVDMVKALEPEIKRALPSILTPERFTRMALSAINNTPKLAECTPMSFIAALMNAAQLGLEPNTPLGQAYLIPYKNKGVLECQFQLGYRGMIDLAYRNERMQSIEAQTVYEHDEFFYELGLHPALVHRPTFEDRGEIRAFYAIFRLDNGGYRFEVMSKSYVDAYAMRYSKAFTSEFSPWKSNYEGMAKKTVIKQLLKYAPVKSEFQKAITLDETVKTELSVDMSEVQNEDLSETLTAESAA
B6: in test [1], the “Activity across all experiments” value is listed as −1.613. In addition, in the test on gene editing with dCas9, the “dCas9 with SSAP activity” value is reported as −1.179 and the “dCas9 with SSAP activity (normalized)” value is recorded as −0.244. Also, in the test with gene editing with Cas9, the “Cas9 with SSAP activity” value was −2.047 and the “Cas9 with SSAP activity (normalized)” value is −0.694.

B7: SSAP_270: SEQ ID NO: 439; Lactococcus sp. DD01 (protein, listed as Lactococcus sp.)
chain: ANLTPTQTVLKSDAAKRKFEEVLGKKTNGFVGSLLSLVGSTNLKNVDSNSVMTAAMKAATLDLPIEPSLGFAYVIPYGREAQFQIGYKGLIQLAIRSGQVTKLNAGPVYENQFIKYDSLFEELEIDFSMPQGVEIAGYFASMELANGFRKIIYWDKEKVTAHGKRFSKSFNRSSSPWQTDFDAMATKTVLKAMLSTYAPLSTEMQQAIVADNESATPKDATPVTDDLVLEAVEDSKQIEENEIINDQVASENYQEPQGEPEVLDLEL
Consider B7, for which, in test [1], the “Activity across all experiments” value is listed as −0.371. In the test on gene editing with dCas9, the “dCas9 with SSAP activity” value is on record as −0.896 and the “dCas9 with SSAP activity (normalized)” value is −0.293. Also, in the test with gene editing with Cas9, the “Cas9 with SSAP activity” value came to 0.154 and the “Cas9 with SSAP activity (normalized)” value turned out to be 0.174.

B8: SSAP_268: SEQ ID NO: 437; Oceanobacillus sp. E9 (protein, listed as Oceanobacillus sp.)
chain: ATNDSLKNQLSSKQGNQNTPSGYTIKQLMGAESVKKRFEEMLDSKASQFMASVINLVNGDTNLQKCDQMSVVSSAMVAATLDLPIDRNLGYAWVIPYGNQATFQLGYKGYIQLALRSGQYRNINVIEVYEGELQSFNRLTEEIELDFEKRTSDKVIGYTGFFELINGFRKTVYWSKAEIEKHKNKFSKSGFGWKNDWDAMAKKTVVRNMLNKWGILSIDMQKAYVEETKDPSEPNGEVIDLNLTEDELTAAQEQFSDENANE
With B8, in test [1], the “Activity across all experiments” value is on record as −0.656. In addition, in the test on gene editing with dCas9, the “dCas9 with SSAP activity” value was −1.151 and the “dCas9 with SSAP activity (normalized)” value is recorded as −0.400. Also, in the test with gene editing with Cas9, the “Cas9 with SSAP activity” value is reported as −0.160 and the “Cas9 with SSAP activity (normalized)” value is on record as −0.383.

B9: SSAP_134: SEQ ID NO: 303; Andreesenia angusta (protein, listed as Andreesenia angusta)
chain: SNLKNQLANKAGGTATKKQPQTMQDWIKVMEPQIKKALPSVITAERFTRMALTAISTNPKLAECTPESFMGALMNAAQLGLEPNTPLGQAYLIPYGKSVQFQVGYKGLMELAQRSGQFKSIYAHTVYENDEFEVEYGLTQNIVHKPNFDDRGKPIGFYAVYKLTNGGENFVFMTQREVEEFGKAKSKTFNNGPWKTDFEAMAKKTVLKQLLKYAPIKVEFQREIAQDATIKTEIAEDMTEVPEEMVEAEYEVVEQNTMAEDADLKGTPFETK
With B9, the “Activity across all experiments” value in test [1] is given as −1.168. For the same molecule, in the test with gene editing with dCas9, the “dCas9 with SSAP activity” value is reported as −1.053 and the “dCas9 with SSAP activity (normalized)” value is on record as −0.424. Also, in the test on gene editing with Cas9, the “Cas9 with SSAP activity” value is listed as −1.284 and the “Cas9 with SSAP activity (normalized)” value is listed as −1.104.

B10: SSAP_49: SEQ ID NO: 218 (protein)
chain: TNNQLATQTKRNITTDPSLLTGADIKKYFDPQNLLTEKQVGQALALCKGRNLNPFANEVYIVAYTNRNGGKEFSLIVSKEAFLKRAAQCKDYEGFEAGVVVVDSEGVMHERKGAIMLPEDTLIGGWARVHRKNFKVPVEIVVSREEYDKKQSTWNTMPATMIRKVALVNALREAFPEDLGNMYTEDDGGETFDRIKDVTPQESREDVVARKMAEIEQFNKEQETNHADPEPAQTEETIQGELLDGELEY
As to B10, in test [1], the “Activity across all experiments” value was −0.751. For the same molecule, in the test with gene editing with dCas9, the “dCas9 with SSAP activity” value is given as −0.987 and the “dCas9 with SSAP activity (normalized)” value is −0.289. Also, in the test on gene editing with Cas9, the “Cas9 with SSAP activity” value is on record as −0.515 and the “Cas9 with SSAP activity (normalized)” value is given as −0.176.

B11: SSAP_214: SEQ ID NO: 383; Clostridium tunisiense (protein)
chain: TTKANVTSVKNALKEQIQVQQVAAQTDTSFQGVLTKQLQHQFKAIQSLVPKHVTPERLCRIGINAASRNPQLMNCTPETIVGAIVNCATLGLEPNLLGHAYIVPFYNNKTGKMEAQFQVGYKGALDLIRRTGAVSTLSAHEVYGPRSIFWTQYFY
modifications: Clostridium tunisiense
B11: in test [1], the “Activity across all experiments” value is on record as −0.758. In addition, in the test on gene editing with dCas9, the “dCas9 with SSAP activity” value was −1.088 and the “dCas9 with SSAP activity (normalized)” value was −1.120. Also, in the test with gene editing with Cas9, the “Cas9 with SSAP activity” value is reported as −0.428 and the “Cas9 with SSAP activity (normalized)” value is reported as −0.545.

B12: SSAP_307: SEQ ID NO: 476; Acetobacterium dehalogenans (protein)
chain: CLRSWTRSFSNSVPLKIRFRLLYTAFLSQGSPLSSVNTTQSADKGSPIFFYAMFKTKDGGYGFEVMSVEDVRAHAKKYSQSFSSAYSPWSKNFEEMAKKTVLKKALKYAPLKSDFVRGIVVDETIKREISEDMYAAPSIEIEYEVDEDGVIQDEPTSNELTEAEK
modifications: Acetobacterium dehalogenans
Turning to B12, in test [1], the “Activity across all experiments” value is −1.095. For the same molecule, in the test on gene editing with dCas9, the “dCas9 with SSAP activity” value is −1.100 and the “dCas9 with SSAP activity (normalized)” value is −0.907. Moreover, in the test with gene editing with Cas9, the “Cas9 with SSAP activity” value is −1.090 and the “Cas9 with SSAP activity (normalized)” value is −2.185.
